Assay results from paper PMC12711580, “Florigen activation complex forms via multifaceted assembly in Arabidopsis” (Nature, 2025).

T1: MBP–FD(T282E), maltose-binding protein-fused phospho-mimic mutant FD (Arabidopsis thaliana, UniProt Q84JK2 2-285, T282E)
T1 construct: FD, bZIP transcription factor, Arabidopsis thaliana; residues 2-285; codon-optimised for E. coli; also called MBP-FD^(2–285 (T282E)); source: E. coli, purified (Ni-NTA, size-exclusion chromatography); not shown: MBP, N-terminal, kept
T1 sequence (looked up): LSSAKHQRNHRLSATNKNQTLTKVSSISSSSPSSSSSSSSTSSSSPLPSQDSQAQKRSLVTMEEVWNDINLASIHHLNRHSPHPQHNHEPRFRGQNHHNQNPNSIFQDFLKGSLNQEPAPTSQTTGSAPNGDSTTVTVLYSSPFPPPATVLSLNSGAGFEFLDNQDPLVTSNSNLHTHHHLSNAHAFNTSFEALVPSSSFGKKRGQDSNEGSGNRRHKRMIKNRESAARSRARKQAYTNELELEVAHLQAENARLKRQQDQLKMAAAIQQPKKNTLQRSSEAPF

B1: GRF7 (14-3-3ν), recombinant (natural protein, Arabidopsis thaliana, UniProt Q96300 1-265, looked up)
chain: MSSSREENVYLAKLAEQAERYEEMVEFMEKVAKTVDTDELTVEERNLLSVAYKNVIGARRASWRIISSIEQKEESRGNDDHVSIIKDYRGKIETELSKICDGILNLLDSHLVPTASLAESKVFYLKMKGDYHRYLAEFKTGAERKEAAESTLVAYKSAQDIALADLAPTHPIRLGLALNFSVFYYEILNSPDRACSLAKQAFDEAISELDTLGEESYKDSTLIMQLLRDNLTLWNSDINDEAGGDEIKEASKHEPEEGKPAETGQ
notes: GRF7 (14-3-3ν), Arabidopsis thaliana; cloned into pMAL-c5X-His or a modified pMAL-c5X vector; also called GRF7-6His; source: E. coli, purified (Ni-NTA, size-exclusion chromatography)

Key:
[1] = molecular target: T1, MBP–FD(T282E), maltose-binding …; assay: SEC; gel filtration of mixed purified proteins without DNA, fractions analysed on gel; settings: both partners purified
[2] = molecular target: B1; assay: SEC-MALS; MBP–FDc(T282E) or its mutants with GRF7; 25 mM Tris-HCl pH 8.0, 160 mM NaCl, 2% glycerol; Superdex 200; settings: both partners purified
[3] = molecular target: the molecule itself; assay: SEC-MALS; MBP–FDc(T282E) alone at low concentration; 25 mM Tris-HCl pH 8.0, 160 mM NaCl, 2% glycerol; Superdex 200
[4] = molecular target: the molecule itself; assay: SEC-MALS; MBP–FDc(T282E) or its mutants with GRF7; 25 mM Tris-HCl pH 8.0, 160 mM NaCl, 2% glycerol; Superdex 200

Row | binding result [2] | Binder | binding result [4] | also measured
1 |  | B1 |  | binding result [1]: binds
2 | binds | MBP–FDc(T282E), N-terminal MBP-fused, truncated FD (amino acids 215–285) (domain or fragment, Arabidopsis thaliana, UniProt Q84JK2 215-285, looked up, FD, Arabidopsis thaliana; also called MBP-FDc^(215–285 (T282E)); source: E. coli, purified; not shown: MBP, N-terminal, kept) NRRHKRMIKNRESAARSRARKQAYTNELELEVAHLQAENARLKRQQDQLKMAAAIQQPKKNTLQRSSEAPF |  | stoichiometry N [3]: 2
3 | binds | MBP–FDc(T282E) Mu2 (Y238A,E243A) (domain or fragment, Arabidopsis thaliana, UniProt Q84JK2 215-285, looked up, FD, Arabidopsis thaliana; amino acids 215–285; source: E. coli, purified; not shown: MBP, N-terminal, kept) NRRHKRMIKNRESAARSRARKQAATNELALEVAHLQAENARLKRQQDQLKMAAAIQQPKKNTLQRSSEAPF | binds | 
4 |  | MBP–FDc(T282E) Mu3 (L242A) (domain or fragment, Arabidopsis thaliana, UniProt Q84JK2 215-285, looked up, FD, Arabidopsis thaliana; amino acids 215–285; L242A is printed for Mu3 only in the name of the transgene gFD::3HA-3Flag-FD^Mu3_L242A; source: E. coli, purified; not shown: MBP, N-terminal, kept) NRRHKRMIKNRESAARSRARKQAYTNEAELEVAHLQAENARLKRQQDQLKMAAAIQQPKKNTLQRSSEAPF |  | stoichiometry N [2]: 1 copy of FDc(T282E) per GRF7 dimer
5 | binds | MBP–FDc(T282E) Mu6 (L263A) (domain or fragment, Arabidopsis thaliana, UniProt Q84JK2 215-285, looked up, FD, Arabidopsis thaliana; amino acids 215–285; source: E. coli, purified; not shown: MBP, N-terminal, kept) NRRHKRMIKNRESAARSRARKQAYTNELELEVAHLQAENARLKRQQDQAKMAAAIQQPKKNTLQRSSEAPF | binds | 
